The values that follow come from publication PMC2568912 (The Journal of Biological Chemistry, 2008).

This data set deals with the molecule itself. The data set is described as follows: non-reducing SDS-PAGE with immunoblot. A general note: Immunoblotting shows a protein as a band on a membrane.

B1: N-terminal HA-tagged PKD2 mutant L703X (domain or fragment, human, UniProt Q13563 1-702, looked up)
chain: MVNSSRVQPQQPGDAKRPPAPRAPDPGRLMAGCAAVGASLAAPGGLCEQRGLEIEMQRIRQAAARDPPAGAAASPSPPLSSCSRQAWSRDNPGFEAEEEEEEVEGEEGGMVVEMDVEWRPGSRRSAASSAVSSVGARSRGLGGYHGAGHPSGRRRRREDQGPPCPSPVGGGDPLHRHLPLEGQPPRVAWAERLVRGLRGLWGTRLMEESSTNREKYLKSVLRELVTYLLFLIVLCILTYGMMSSNVYYYTRMMSQLFLDTPVSKTEKTNFKTLSSMEDFWKFTEGSLLDGLYWKMQPSNQTEADNRSFIFYENLLLGVPRIRQLRVRNGSCSIPQDLRDEIKECYDVYSVSSEDRAPFGPRNGTAWIYTSEKDLNGSSHWGIIATYSGAGYYLDLSRTREETAAQVASLKKNVWLDRGTRATFIDFSVYNANINLFCVVRLLVEFPATGGVIPSWQFQPLKLIRYVTTFDFFLAACEIIFCFFIFYYVVEEILEIRIHKLHYFRSFWNCLDVVIVVLSVVAIGINIYRTSNVEVLLQFLEDQNTFPNFEHLAYWQIQFNNIAAVTVFFVWIKLFKFINFNRTMSQLSTTMSRCAKDLFGFAIMFFIIFLAYAQLAYLVFGTQVDDFSTFQECIFTQFRIILGDINFAEIEEANRVLGPIYFTTFVFFMFFILLNMFLAIINDTYSEVKSDLAQQKAEMELSD
A word on the stoichiometry N: it is a count of units in the complex or per binding partner. As to B1, the “stoichiometry N” value came out at 2.
